Consider one molecule from article PMC9436968, “Crosstalk between SUMOylation and ubiquitylation controls DNA end resection by maintaining MRE11 homeostasis on chromatin” (Nature Communications, 2022).

For test [1], the target named is T1, Flag-WT-MRE11 (complexed with RAD50) (UniProt P49959 1-708; Q92878 1-1312).
T1 construct: MRE11, Flag-tagged, in the pESC-URA vector; RAD50, His-tagged, in the pESC-URA vector; The results call it Flag-MRE11; also called MRE11/RAD50 complex; Flag-MRE11; source: protease-deficient yeast strain, co-expressed, purified (Ni-NTA, anti-Flag M2 beads)
T1 sequence (P49959 whole entry, chain 1 of 2): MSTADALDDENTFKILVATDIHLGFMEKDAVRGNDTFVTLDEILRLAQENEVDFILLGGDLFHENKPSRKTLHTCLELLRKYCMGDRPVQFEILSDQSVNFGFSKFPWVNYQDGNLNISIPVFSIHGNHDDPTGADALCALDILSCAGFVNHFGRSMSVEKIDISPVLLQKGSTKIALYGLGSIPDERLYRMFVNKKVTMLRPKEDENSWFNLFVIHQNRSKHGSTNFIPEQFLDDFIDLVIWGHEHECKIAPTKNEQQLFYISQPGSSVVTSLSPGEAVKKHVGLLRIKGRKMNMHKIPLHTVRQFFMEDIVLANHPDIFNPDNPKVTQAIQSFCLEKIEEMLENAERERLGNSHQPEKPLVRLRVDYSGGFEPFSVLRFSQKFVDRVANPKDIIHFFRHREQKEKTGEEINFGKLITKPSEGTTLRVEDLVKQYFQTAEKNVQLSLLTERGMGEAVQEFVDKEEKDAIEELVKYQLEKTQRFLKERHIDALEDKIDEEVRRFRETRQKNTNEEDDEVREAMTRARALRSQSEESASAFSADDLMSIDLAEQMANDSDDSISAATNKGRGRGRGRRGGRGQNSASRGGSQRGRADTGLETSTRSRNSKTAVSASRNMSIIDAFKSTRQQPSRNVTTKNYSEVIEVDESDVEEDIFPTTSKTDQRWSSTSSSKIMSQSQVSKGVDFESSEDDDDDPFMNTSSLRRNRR
T1 sequence (Q92878 whole entry, chain 2 of 2): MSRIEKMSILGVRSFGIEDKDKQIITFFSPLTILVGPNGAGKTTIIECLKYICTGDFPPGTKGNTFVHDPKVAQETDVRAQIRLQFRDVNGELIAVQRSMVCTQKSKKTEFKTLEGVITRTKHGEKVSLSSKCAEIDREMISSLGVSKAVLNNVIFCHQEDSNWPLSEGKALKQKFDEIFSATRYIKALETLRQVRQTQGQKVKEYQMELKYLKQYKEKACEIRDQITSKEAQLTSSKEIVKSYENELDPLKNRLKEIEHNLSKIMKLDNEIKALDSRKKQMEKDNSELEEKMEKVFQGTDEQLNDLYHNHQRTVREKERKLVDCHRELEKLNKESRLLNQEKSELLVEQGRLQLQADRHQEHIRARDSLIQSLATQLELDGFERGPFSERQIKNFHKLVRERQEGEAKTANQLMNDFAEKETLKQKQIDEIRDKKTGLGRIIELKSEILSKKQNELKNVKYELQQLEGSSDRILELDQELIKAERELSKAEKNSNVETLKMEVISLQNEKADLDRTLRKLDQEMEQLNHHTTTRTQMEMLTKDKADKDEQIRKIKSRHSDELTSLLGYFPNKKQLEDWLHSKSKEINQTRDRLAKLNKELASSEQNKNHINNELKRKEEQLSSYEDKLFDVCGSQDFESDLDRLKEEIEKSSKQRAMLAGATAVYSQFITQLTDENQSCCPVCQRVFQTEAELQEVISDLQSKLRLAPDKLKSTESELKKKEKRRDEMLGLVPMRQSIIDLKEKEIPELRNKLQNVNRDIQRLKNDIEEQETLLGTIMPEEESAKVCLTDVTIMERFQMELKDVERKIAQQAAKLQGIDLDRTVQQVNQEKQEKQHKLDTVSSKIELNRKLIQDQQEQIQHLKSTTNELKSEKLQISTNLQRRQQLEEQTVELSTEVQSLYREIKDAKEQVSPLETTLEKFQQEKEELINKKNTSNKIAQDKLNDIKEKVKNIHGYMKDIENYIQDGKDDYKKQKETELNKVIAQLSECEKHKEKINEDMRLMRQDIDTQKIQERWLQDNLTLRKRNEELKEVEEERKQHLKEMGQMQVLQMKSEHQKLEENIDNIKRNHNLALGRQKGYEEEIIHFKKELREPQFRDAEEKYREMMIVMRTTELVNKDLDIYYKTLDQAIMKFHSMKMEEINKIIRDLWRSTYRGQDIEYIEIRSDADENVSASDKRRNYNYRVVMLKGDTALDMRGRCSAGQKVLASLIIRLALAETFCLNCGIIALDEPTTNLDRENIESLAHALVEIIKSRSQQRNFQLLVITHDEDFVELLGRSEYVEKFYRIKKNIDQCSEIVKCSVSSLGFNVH
Description: pull-down; purified proteins incubated in T50 buffer (25 mM Tris-HCl pH 7.5, 10% glycerol, 0.5 mM EDTA, 50 mM KCl, 1 mM DTT, 0.01% Igepal) on ice for 2 h, pulled down by anti-Flag M2 beads; supernatant and eluate immunoblotted. Conditions: both partners purified.

The target of test [2] is T2, Flag-4KR (complexed with RAD50) (UniProt P49959 1-708; Q92878 1-1312, K255R | K384R | K416R | K467R).
T2 construct: MRE11 with the four lysine-to-arginine mutations (4KR); RAD50, His-tagged, as in the MRE11/RAD50 complex; also called MRE11 4KR mutant; SUMOylation-deficient MRE11; source: purified, complexed with RAD50; the host is told for the MRE11/RAD50 complex: yeast
T2 sequence (P49959 whole entry K255R/K384R/K416R/K467R, chain 1 of 2): as the sequence (P49959 whole entry, chain 1 of 2) above, with K255R, K384R, K416R, K467R counted along it
T2 sequence (Q92878 whole entry, chain 2 of 2): as the sequence (Q92878 whole entry, chain 2 of 2) above
The description is as above. Conditions: both partners purified.

B1: MBP-NBS1 (natural protein, UniProt O60934 1-754, looked up)
chain: MWKLLPAAGPAGGEPYRLLTGVEYVVGRKNCAILIENDQSISRNHAVLTANFSVTNLSQTDEIPVLTLKDNSKYGTFVNEEKMQNGFSRTLKSGDGITFGVFGSKFRIEYEPLVACSSCLDVSGKTALNQAILQLGGFTVNNWTEECTHLVMVSVKVTIKTICALICGRPIVKPEYFTEFLKAVESKKQPPQIESFYPPLDEPSIGSKNVDLSGRQERKQIFKGKTFIFLNAKQHKKLSSAVVFGGGEARLITEENEEEHNFFLAPGTCVVDTGITNSQTLIPDCQKKWIQSIMDMLQRQGLRPIPEAEIGLAVIFMTTKNYCDPQGHPSTGLKTTTPGPSLSQGVSVDEKLMPSAPVNTTTYVADTESEQADTWDLSERPKEIKVSKMEQKFRMLSQDAPTVKESCKTSSNNNSMVSNTLAKMRIPNYQLSPTKLPSINKSKDRASQQQQTNSIRNYFQPSTKKRERDEENQEMSSCKSARIETSCSLLEQTQPATPSLWKNKEQHLSENEPVDTNSDNNLFTDTDLKSIVKNSASKSHAAEKLRSNKKREMDDVAIEDEVLEQLFKDTKPELEIDVKVQKQEEDVNVRKRPRMDIETNDTFSDEAVPESSKISQENEIGKKRELKEDSLWSAKEISNNDKLQDDSEMLPKKLLLTEFRSLVIKNSTSRNPSGINDDYGQLKNFKKFKKVTYPGAGKLPHIIGGSDLIAHHARKNTELEEWLRQEMEVQNQHAKEESLADDLFRYNPYLKRRR
notes: NBS1, MBP- and His-tagged, in the pFastBac vector; also called MBP- and His-tagged NBS1; source: High Five cells (baculovirus), purified (amylose beads, Ni-NTA)
In the case of B1, the binding result in test [1] and in test [2] was “binds” each time.
